The target of one data set is MM2[N-term] (mouse, UniProt Q9Z2D6 1-93+Q9Z2E1:153-217+165-205, internal_change). In words: EMSA; 0-4.5 uM protein; BLI: 150 mM NaCl, 10 mM HEPES pH 8.0, 0.05% Tween20, poly(dI-dC) 1 ug/ml; MBD2 EMSA: 20 mM HEPES pH 7.9, 150 mM KCl, 8% Ficoll, 1 mM EDTA, 0.5 mM DTT, poly(dI-dC) 40 ng/ul, RT; N-term EMSA: 10 mM Tris-HCl pH 7.5, 150 mM KCl, 5% glycerol, 0.1 mM EDTA, 0.1 mg/ml BSA, 1 ug poly(dA-dT), on ice; pull-down at 4 C. As to conditions: protein: recombinant; tags: C-terminal 6xHis; label: 32P (T4 PNK); blunt. Background: In EMSA bound probe runs differently from free probe, usually more slowly.

Data set [1] has as its target T1, MeCP2[N-term] WT (mouse, UniProt Q9Z2D6 1-205). In words: EMSA; 0-4.5 uM protein; not different from mCG (p = 0.613); BLI: 150 mM NaCl, 10 mM HEPES pH 8.0, 0.05% Tween20, poly(dI-dC) 1 ug/ml; MBD2 EMSA: 20 mM HEPES pH 7.9, 150 mM KCl, 8% Ficoll, 1 mM EDTA, 0.5 mM DTT, poly(dI-dC) 40 ng/ul, RT; N-term EMSA: 10 mM Tris-HCl pH 7.5, 150 mM KCl, 5% glycerol, 0.1 mM EDTA, 0.1 mg/ml BSA, 1 ug poly(dA-dT), on ice; pull-down at 4 C. As to conditions: protein: recombinant; tags: C-terminal 6xHis; label: 32P (T4 PNK); blunt.

In data set [2] the target is T1, MeCP2[N-term] WT. In words: EMSA; 0-4.5 uM protein; BLI: 150 mM NaCl, 10 mM HEPES pH 8.0, 0.05% Tween20, poly(dI-dC) 1 ug/ml; MBD2 EMSA: 20 mM HEPES pH 7.9, 150 mM KCl, 8% Ficoll, 1 mM EDTA, 0.5 mM DTT, poly(dI-dC) 40 ng/ul, RT; N-term EMSA: 10 mM Tris-HCl pH 7.5, 150 mM KCl, 5% glycerol, 0.1 mM EDTA, 0.1 mg/ml BSA, 1 ug poly(dA-dT), on ice; pull-down at 4 C. As to conditions: protein: recombinant; tags: C-terminal 6xHis; label: 32P (T4 PNK); blunt.

Data set [3] has as its target T2, MeCP2[MBD] (mouse (fragment sequence identical in …, UniProt Q9Z2D6 77-167)). In words: BLI; poly(dI-dC) 1 ug/ml; main text prints 63.17; BLI: 150 mM NaCl, 10 mM HEPES pH 8.0, 0.05% Tween20, poly(dI-dC) 1 ug/ml; MBD2 EMSA: 20 mM HEPES pH 7.9, 150 mM KCl, 8% Ficoll, 1 mM EDTA, 0.5 mM DTT, poly(dI-dC) 40 ng/ul, RT; N-term EMSA: 10 mM Tris-HCl pH 7.5, 150 mM KCl, 5% glycerol, 0.1 mM EDTA, 0.1 mg/ml BSA, 1 ug poly(dA-dT), on ice; pull-down at 4 C. The following applies: protein: recombinant; tags: pET28 (NdeI/EcoRI), His tag (Ni-NTA purified; tag removal not mentioned); label: 5'-biotin on strand 1; 19 bp, 5' overhang 1 nt each end. For orientation: In BLI a coated tip is dipped into the sample, and binding shifts an interference pattern.

Data set [4] has as its target T2, MeCP2[MBD]. In words: BLI; poly(dI-dC) 1 ug/ml; BLI: 150 mM NaCl, 10 mM HEPES pH 8.0, 0.05% Tween20, poly(dI-dC) 1 ug/ml; MBD2 EMSA: 20 mM HEPES pH 7.9, 150 mM KCl, 8% Ficoll, 1 mM EDTA, 0.5 mM DTT, poly(dI-dC) 40 ng/ul, RT; N-term EMSA: 10 mM Tris-HCl pH 7.5, 150 mM KCl, 5% glycerol, 0.1 mM EDTA, 0.1 mg/ml BSA, 1 ug poly(dA-dT), on ice; pull-down at 4 C. The following applies: protein: recombinant; tags: pET28 (NdeI/EcoRI), His tag (Ni-NTA purified; tag removal not mentioned); label: 5'-biotin on strand 1; 19 bp, 5' overhang 1 nt each end.

A further data set concerns the target MBD2[MBD] (human, UniProt Q9UBB5 139-224). In words: EMSA; 2 uM protein; poly(dI-dC); BLI: 150 mM NaCl, 10 mM HEPES pH 8.0, 0.05% Tween20, poly(dI-dC) 1 ug/ml; MBD2 EMSA: 20 mM HEPES pH 7.9, 150 mM KCl, 8% Ficoll, 1 mM EDTA, 0.5 mM DTT, poly(dI-dC) 40 ng/ul, RT; N-term EMSA: 10 mM Tris-HCl pH 7.5, 150 mM KCl, 5% glycerol, 0.1 mM EDTA, 0.1 mg/ml BSA, 1 ug poly(dA-dT), on ice; pull-down at 4 C. As to conditions: protein: recombinant; tags: N-terminal His6 removed by TEV; residual N-terminal SM; label: 5'-FAM on strand 1; 19 bp, 5' overhang 1 nt each end.

Chain of MBD2[MBD] (Q9UBB5 139-224): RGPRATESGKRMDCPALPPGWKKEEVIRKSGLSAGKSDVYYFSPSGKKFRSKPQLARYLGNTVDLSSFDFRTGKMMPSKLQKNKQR

B1: Bdnf mCAC probe (dsDNA)
DNA 1: AAGCATGCAATGCCCTGGAACACAATTCTTCTAATAAAAGATGTATCATTTTAAATGC
DNA 2: GCATTTAAAATGATACATCTTTTATTAGAAGAATTGTGTTCCAGGGCATTGCATGCTT
modifications: 5mC at central CAC: C21 of strand 1 (underlining lost in text)
For B1, the binding result with MM2[N-term] was “no binding”; with MeCP2[N-term] WT [1], “binds”.

B2: Bdnf mCG probe (dsDNA)
DNA 1: AAGCATGCAATGCCCTGGAACGGAATTCTTCTAATAAAAGATGTATCATTTTAAATGC
DNA 2: GCATTTAAAATGATACATCTTTTATTAGAAGAATTCCGTTCCAGGGCATTGCATGCTT
modifications: 5mC at central CG: C21 of strand 1 and probably C37 of strand 2 (underlining lost in text)
With B2, the binding result with MeCP2[N-term] WT [2] is reported as “binds”.

B3: BLI mCAT probe (dsDNA)
DNA 1: TCTGGAACATAATTCTTCTA
DNA 2: ATAGAAGAATTATGTTCCAG
modifications: 5mC at CAT: C8 of strand 1 (underlining lost in text)
In general, Kd refers to the equilibrium constant for the complex coming apart. As to B3, the Kd with MeCP2[MBD] [3] worked out at 63.7 nM.

B4: BLI mCG probe (dsDNA)
DNA 1: TCTGGAACGGAATTCTTCTA
DNA 2: ATAGAAGAATTCCGTTCCAG
modifications: 5mC at CG: C8 of strand 1 and probably C13 of strand 2 (underlining lost in text)
With B4, the Kd with MeCP2[MBD] [4] stood at 22.2 nM.

B5: FAM mCG probe (dsDNA)
DNA 1: TCTGGAACGGAATTCTTCTA
DNA 2: ATAGAAGAATTCCGTTCCAG
modifications: 5mC at CG: C8 of strand 1 and probably C13 of strand 2 (underlining lost in text)
Consider B5, for which the binding result with MBD2[MBD] was “binds”.

B6: BLI mCAC probe (dsDNA)
DNA 1: TCTGGAACACAATTCTTCTA
DNA 2: ATAGAAGAATTGTGTTCCAG
modifications: 5mC at CAC: C8 of strand 1 (underlining lost in text)
Consider B6, for which, in the data set with MeCP2[MBD] [4], the Kd turned out to be 13.9 nM.

The record behind these values is paper PMC7980222, “Neuronal non-CG methylation is an essential target for MeCP2 function”.
